# Measurements as given in patent publication US20160327558.
substance,measurement,setting,value
Human cathepsin B,in vitro protease activity measurements (zRR-AMC cleavage),probe 5 (FITC-LRSR-AOMK),also abrogated cathepsin B activity even though slightly less efficient
same,in vitro protease activity measurements (zRR-AMC cleavage),z-VRPR-FMK,also abrogated cathepsin B activity even though slightly less efficient
